According to article PMC9482650, “Quantitative fragmentomics allow affinity mapping of interactomes” (Nature Communications, 2022):

T1: ARHGAP21, Q5T5U3
T1 sequence (Q5T5U3 45-169, limits assumed, looked up): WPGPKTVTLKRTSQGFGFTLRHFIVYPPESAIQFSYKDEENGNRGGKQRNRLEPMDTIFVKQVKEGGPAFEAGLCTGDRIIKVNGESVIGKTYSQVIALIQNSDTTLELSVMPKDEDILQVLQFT

T2: DFNB31_1, Q9P202
T2 sequence (Q9P202 135-233, limits assumed, looked up): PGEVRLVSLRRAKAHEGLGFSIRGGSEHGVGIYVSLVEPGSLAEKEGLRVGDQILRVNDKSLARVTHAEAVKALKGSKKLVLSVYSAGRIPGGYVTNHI

T3: GRIP1_7, Q9Y3R0
T3 sequence (Q9Y3R0 999-1096, limits assumed, looked up): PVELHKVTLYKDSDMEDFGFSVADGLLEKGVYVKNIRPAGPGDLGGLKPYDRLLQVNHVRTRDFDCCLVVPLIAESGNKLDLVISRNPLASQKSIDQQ

T4: HTRA3, P83110
T4 sequence (P83110 354-453, limits assumed, looked up): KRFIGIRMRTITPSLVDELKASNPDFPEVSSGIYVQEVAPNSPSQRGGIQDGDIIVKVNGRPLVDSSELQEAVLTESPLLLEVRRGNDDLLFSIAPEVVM

T5: LIN7C, Q9NUP9
T5 sequence (Q9NUP9 88-185, limits assumed, looked up): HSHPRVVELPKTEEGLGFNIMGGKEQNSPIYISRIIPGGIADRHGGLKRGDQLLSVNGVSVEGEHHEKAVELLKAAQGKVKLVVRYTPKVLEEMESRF

T6: LNX2_3, Q8N448
T6 sequence (Q8N448 463-564, limits assumed, looked up): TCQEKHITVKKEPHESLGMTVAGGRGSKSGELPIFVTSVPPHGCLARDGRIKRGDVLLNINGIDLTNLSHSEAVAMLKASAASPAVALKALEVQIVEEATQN

T7: MPDZ_5, O75970
T7 sequence (O75970 695-796, limits assumed, looked up): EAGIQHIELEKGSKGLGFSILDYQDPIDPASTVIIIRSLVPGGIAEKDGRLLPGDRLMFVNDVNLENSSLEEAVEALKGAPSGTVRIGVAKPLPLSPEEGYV

T8: PARD3B_1, Q8TEW8
T8 sequence (Q8TEW8 196-299, limits assumed, looked up): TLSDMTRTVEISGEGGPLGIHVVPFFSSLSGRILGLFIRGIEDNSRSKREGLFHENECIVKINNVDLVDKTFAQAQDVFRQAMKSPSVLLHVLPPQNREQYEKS

T9: PDZD2_2, O15018
T9 sequence (O15018 329-429, limits assumed, looked up): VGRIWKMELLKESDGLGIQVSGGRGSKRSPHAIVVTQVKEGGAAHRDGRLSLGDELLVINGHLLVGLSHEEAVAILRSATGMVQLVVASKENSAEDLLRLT

T10: SNTA1, Q13424
T10 sequence (Q13424 82-180, limits assumed, looked up): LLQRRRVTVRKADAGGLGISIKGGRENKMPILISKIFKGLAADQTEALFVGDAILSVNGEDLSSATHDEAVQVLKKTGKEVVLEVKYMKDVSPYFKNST

T11: TX1BP3, O14907
T11 sequence (O14907 10-122, limits assumed, looked up): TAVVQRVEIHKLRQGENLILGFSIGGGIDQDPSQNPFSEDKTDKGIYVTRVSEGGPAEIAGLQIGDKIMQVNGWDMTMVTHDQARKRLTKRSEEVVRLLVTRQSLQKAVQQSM


Legend:
Experiment in all cases: holdup assay
Design in all cases: key: below the threshold = too weak to quantify, mostly under pKd 3.1 to 4
Settings in all cases: plain residues with an end cap or a label only (N-terminal biotin on a linker: ado-ado)
ARHGAP21, Q5T5U3 = target: T1, ARHGAP21, Q5T5U3
DFNB31_1, Q9P202 = target: T2, DFNB31_1, Q9P202
DLG2_3, Q15700 = target: DLG2_3, Q15700
FRMPD2_1, Q68DX3 = target: FRMPD2_1, Q68DX3
FRMPD3, Q5JV73 = target: FRMPD3, Q5JV73
GIPC2, Q8TF65 = target: GIPC2, Q8TF65
GOPC, Q9HD26 = target: GOPC, Q9HD26
GORASP2, Q9H8Y8 = target: GORASP2, Q9H8Y8
GRID2IP_2, A4D2P6 = target: GRID2IP_2, A4D2P6
GRIP1_7, Q9Y3R0 = target: T3, GRIP1_7, Q9Y3R0
HTRA3, P83110 = target: T4, HTRA3, P83110
Inadl_1, Q8NI35 = target: Inadl_1, Q8NI35
Inadl_3, Q8NI35 = target: Inadl_3, Q8NI35
Inadl_5, Q8NI35 = target: Inadl_5, Q8NI35
LAP2, Q96RT1 = target: LAP2, Q96RT1
LIN7C, Q9NUP9 = target: T5, LIN7C, Q9NUP9
LNX2_3, Q8N448 = target: T6, LNX2_3, Q8N448
MPDZ_5, O75970 = target: T7, MPDZ_5, O75970
NHERF2_2, Q15599 = target: NHERF2_2, Q15599
PARD3B_1, Q8TEW8 = target: T8, PARD3B_1, Q8TEW8
PDZD2_2, O15018 = target: T9, PDZD2_2, O15018
SCRIB_2, Q14160 = target: SCRIB_2, Q14160
SNTA1, Q13424 = target: T10, SNTA1, Q13424
TJP1_2, Q07157 = target: TJP1_2, Q07157
TX1BP3, O14907 = target: T11, TX1BP3, O14907

Chain of FRMPD2_1, Q68DX3 (Q68DX3 770-861): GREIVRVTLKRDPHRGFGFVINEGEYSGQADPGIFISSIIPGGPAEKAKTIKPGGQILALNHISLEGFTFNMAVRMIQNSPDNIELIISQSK
Chain of FRMPD3, Q5JV73 (Q5JV73 12-100): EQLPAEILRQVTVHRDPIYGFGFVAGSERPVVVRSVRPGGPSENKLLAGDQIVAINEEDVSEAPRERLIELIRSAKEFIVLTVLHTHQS
Chain of Inadl_5, Q8NI35 (Q8NI35 673-780): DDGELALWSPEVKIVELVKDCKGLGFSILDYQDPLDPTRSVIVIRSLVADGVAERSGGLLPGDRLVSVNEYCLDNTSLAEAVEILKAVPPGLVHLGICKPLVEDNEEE
Chain of GIPC2, Q8TF65 (Q8TF65 112-203): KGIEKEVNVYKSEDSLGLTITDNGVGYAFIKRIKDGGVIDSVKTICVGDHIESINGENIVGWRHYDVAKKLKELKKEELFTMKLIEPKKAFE
Chain of TJP1_2, Q07157 (Q07157 181-274): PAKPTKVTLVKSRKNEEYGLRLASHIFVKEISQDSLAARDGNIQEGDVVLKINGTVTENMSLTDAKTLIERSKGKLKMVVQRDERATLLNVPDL
Chain of GRID2IP_2, A4D2P6 (A4D2P6 272-370): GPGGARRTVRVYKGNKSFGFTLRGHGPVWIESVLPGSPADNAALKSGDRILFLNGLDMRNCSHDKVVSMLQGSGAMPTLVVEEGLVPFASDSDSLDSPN
Chain of Inadl_3, Q8NI35 (Q8NI35 359-469): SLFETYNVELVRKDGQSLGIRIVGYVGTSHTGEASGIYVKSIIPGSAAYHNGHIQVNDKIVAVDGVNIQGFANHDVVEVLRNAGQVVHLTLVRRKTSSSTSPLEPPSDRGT
Chain of SCRIB_2, Q14160 (Q14160 857-960): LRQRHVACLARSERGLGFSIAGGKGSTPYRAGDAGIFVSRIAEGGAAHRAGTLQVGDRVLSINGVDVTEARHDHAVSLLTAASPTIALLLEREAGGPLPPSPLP
Chain of LAP2, Q96RT1 (Q96RT1 other isoform, or with tags, fused parts or gaps): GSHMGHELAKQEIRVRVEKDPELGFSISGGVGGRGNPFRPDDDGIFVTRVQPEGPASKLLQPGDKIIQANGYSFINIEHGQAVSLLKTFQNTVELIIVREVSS
Chain of Inadl_1, Q8NI35 (Q8NI35 113-229): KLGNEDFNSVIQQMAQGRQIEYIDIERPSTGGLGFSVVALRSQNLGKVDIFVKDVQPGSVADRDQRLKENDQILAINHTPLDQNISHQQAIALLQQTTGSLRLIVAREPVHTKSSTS
Chain of NHERF2_2, Q15599 (Q15599 142-238): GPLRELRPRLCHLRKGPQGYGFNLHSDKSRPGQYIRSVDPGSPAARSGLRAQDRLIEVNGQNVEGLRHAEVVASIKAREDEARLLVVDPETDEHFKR

| pKd (ARHGAP21, Q5T5U3) | pKd (DFNB31_1, Q9P202) | pKd (DLG2_3, Q15700) | pKd (FRMPD2_1, Q68DX3) | pKd (FRMPD3, Q5JV73) | pKd (GIPC2, Q8TF65) | pKd (GOPC, Q9HD26) | pKd (GORASP2, Q9H8Y8) | pKd (GRID2IP_2, A4D2P6) | pKd (GRIP1_7, Q9Y3R0) | pKd (HTRA3, P83110) | pKd (Inadl_1, Q8NI35) | pKd (Inadl_3, Q8NI35) | pKd (Inadl_5, Q8NI35) | pKd (LAP2, Q96RT1) | pKd (LIN7C, Q9NUP9) | pKd (LNX2_3, Q8N448) | pKd (MPDZ_5, O75970) | pKd (NHERF2_2, Q15599) | pKd (PARD3B_1, Q8TEW8) | Binder | also measured |
| --- | --- | --- | --- | --- | --- | --- | --- | --- | --- | --- | --- | --- | --- | --- | --- | --- | --- | --- | --- | --- | --- |
| 3.71 | 4.13 | 4.42 | below the threshold | below the threshold | below the threshold | 4.28 | 3.92 | 3.63 | below the threshold | below the threshold | below the threshold | below the threshold | below the threshold | below the threshold | below the threshold | below the threshold | below the threshold | 3.75 | below the threshold | LPHPHSTTRV [NLGN2, Q8NFZ4] | pKd (PDZD2_2, O15018): below the threshold; pKd (SCRIB_2, Q14160): below the threshold; pKd (SNTA1, Q13424): 4.18; pKd (TJP1_2, Q07157): below the threshold; pKd (TX1BP3, O14907): 3.79 |
| 3.91 | below the threshold | below the threshold | below the threshold | below the threshold | below the threshold | below the threshold | 4 | below the threshold | below the threshold | below the threshold | below the threshold | below the threshold | below the threshold | below the threshold | below the threshold | below the threshold | below the threshold | below the threshold | 3.75 | QPCFNKLFPL [LPXN, O60711] | pKd (PDZD2_2, O15018): below the threshold; pKd (SCRIB_2, Q14160): below the threshold; pKd (SNTA1, Q13424): below the threshold; pKd (TJP1_2, Q07157): below the threshold; pKd (TX1BP3, O14907): below the threshold |
| 3.93 | below the threshold | below the threshold | below the threshold | below the threshold | below the threshold | 3.98 | 4.16 | 4.81 | below the threshold | below the threshold | below the threshold | 3.64 | below the threshold | below the threshold | 4.12 | below the threshold | below the threshold | 4.5 | 4.47 | QGLAERISVL [PRKD2, Q9BZL6] | pKd (PDZD2_2, O15018): 4.32; pKd (SCRIB_2, Q14160): below the threshold; pKd (SNTA1, Q13424): 4.71; pKd (TJP1_2, Q07157): below the threshold; pKd (TX1BP3, O14907): 4.38 |

Second part, the binder before the results:

| Binder | pKd (ARHGAP21, Q5T5U3) | pKd (DFNB31_1, Q9P202) | pKd (DLG2_3, Q15700) | pKd (FRMPD2_1, Q68DX3) | pKd (FRMPD3, Q5JV73) | pKd (GIPC2, Q8TF65) | pKd (GOPC, Q9HD26) | pKd (GORASP2, Q9H8Y8) | pKd (GRID2IP_2, A4D2P6) | pKd (GRIP1_7, Q9Y3R0) | pKd (HTRA3, P83110) | pKd (Inadl_1, Q8NI35) | pKd (Inadl_3, Q8NI35) | pKd (Inadl_5, Q8NI35) | pKd (LAP2, Q96RT1) | pKd (LIN7C, Q9NUP9) | pKd (LNX2_3, Q8N448) | pKd (MPDZ_5, O75970) | pKd (NHERF2_2, Q15599) | pKd (PARD3B_1, Q8TEW8) | also measured |
| --- | --- | --- | --- | --- | --- | --- | --- | --- | --- | --- | --- | --- | --- | --- | --- | --- | --- | --- | --- | --- | --- |
| PRISRSQSEL [CCDC134, Q9H6E4] | below the threshold | below the threshold | 3.63 | below the threshold | below the threshold | below the threshold | below the threshold | below the threshold | 3.61 | below the threshold | below the threshold | below the threshold | below the threshold | below the threshold | below the threshold | below the threshold | below the threshold | below the threshold | below the threshold | below the threshold | pKd (PDZD2_2, O15018): 3.66; pKd (SCRIB_2, Q14160): below the threshold; pKd (SNTA1, Q13424): below the threshold; pKd (TJP1_2, Q07157): below the threshold; pKd (TX1BP3, O14907): 3.52 |
| PAPSSGKDYV [CLDN1, O95832] | below the threshold | below the threshold | below the threshold | below the threshold | below the threshold | below the threshold | below the threshold | 3.67 | below the threshold | 3.87 | 3.95 | below the threshold | below the threshold | below the threshold | below the threshold | below the threshold | below the threshold | below the threshold | below the threshold | below the threshold | pKd (PDZD2_2, O15018): 4.59; pKd (SCRIB_2, Q14160): below the threshold; pKd (SNTA1, Q13424): below the threshold; pKd (TJP1_2, Q07157): below the threshold; pKd (TX1BP3, O14907): below the threshold |
| EVEEFPETSV [TRPV3, Q8NET8] | 4.15 | 4.86 | 4.41 | 3.59 | 3.59 | 4.32 | 4.22 | 3.51 | 4.39 | 3.48 | below the threshold | below the threshold | 3.72 | 3.56 | 4.93 | 4.51 | 3.62 | 3.56 | 3.72 | below the threshold | pKd (PDZD2_2, O15018): 4.99; pKd (SCRIB_2, Q14160): 4.94; pKd (SNTA1, Q13424): 5.22; pKd (TJP1_2, Q07157): 3.52; pKd (TX1BP3, O14907): 4.8 |
